Data: patent US20150329642A1 (Genmab, published 2015)
Residue numbers refer to the chain shown, from its start.

B1: IgG1-1016-069 (antibody, V domains shown)
VH: QVQLVQSGAEVKKPGASVKVSCETSGYTFTSYGISWVRQAPGHGLEWMGWISAYNGYTNYAQKLQGRVTMTTDTSTSTAYMELRSLRSDDTAVYYCARDLRGTNYFDYWGQGTLVTVSS
VL: DIQMTQSPSSVSASVGDRVTITCRASQGISNWLAWFQHKPGKAPKLLIYAASSLLSGVPSRFSGSGSGTDFTLTISSLQPEDFATYYCQQANSFPITFGQGTRLEIK
notes: also called clone 069; TH1016-069
B2: anti-c-Met HuMab 181 (IgG1) (antibody, V domains shown)
VH: B1 VH with E23K, T24A, H43Q, A53T, N104A
VL: B1 VL with F36Y
notes: also called TH1016-181; PC1016-181
B3: anti-c-Met HuMab 101 (IgG1) (antibody, V domains shown)
VH: QVQLVQSGGEVKKPGASVKVSCKASGYTFTRHGITWVRQAPGQGLEWMGWISADNGNTNYAQKFQDRVTMTTDTSTSTAYMELRSLRSDDTAVYFCARVFRYFDWLLPYFDYWGQGTLVTVST
VL: not shown
B4: IgG1-024 (antibody, V domains shown)
VH: EVQLLESGGGLVQPGGSLRLSCVASGFTFSSYAMSWVRQAPGKGLEWVSAISGSSGGSTYYVDSVKGRFTISRANSKNTLYLQMNSLRAEDTAVYYCAKDLDRGWMGYFGYWGQGTLVTVSS
VL: DIQMTQSPSSVSASVGDRVTITCRASQGISSWLAWYQHKPGKAPKLLIYAASSLQSGVPSRFSGSGSGTDFTLTISSLQPEDFATYYCQQANSFPTFGQGTRLEIK
notes: also called TH1016-024; PC1016-024
B5: anti-c-Met HuMab 008 (IgG1) (antibody, V domains shown)
VH: EVQLVQSGAEVKKPGESLKISCKGSGYSFTSYWIGWVRQMPGKGLEWMGIIYPGDSETRYSPSFQGQVTISADKSISTAYLQWSSLKASDTAMYYCARQEITGEFDYWGQGTLVTVSS
VL: AIQLTQSPSSLSASVGDRVTITCRASQGISSALAWYQQKPGKAPKLLIYDASSLESGVPSRFSGSGSGTDFTLTISSLQPEDFATYYCQQFNSYPRTFGQGTKVEIK
notes: also called TH1016-008; PC1016-008
B6: anti-c-Met HuMab 035 (IgG1) (antibody, V domains shown)
VH: B5 VH with E57D, S84N
VL: AIQLTQSPSSLSASVGDRVTITCRASQGISSALAWYQQKPGKAPKLLIYDASSLESGVPSRFSGSGSGTDFTLTISSLQPEDFATYYCQQFNSYPMYTFGQGTKLEIK
notes: also called P1016-035; TH1016-035-D09
B7: anti-c-Met HuMab 045 (IgG1) (antibody, V domains shown)
VH: EVQLLESGGGLVQPGGSLRLSCAASGFTFSSYAMSWVRQAPGKGLEWVSVISGSGGITYYADSVKGRFTISRDNSKNTLYLQMNSLRAEDTAVYYCARDRGWGSDYWGQGTLVTVSS
VL: EIVLTQSPATLSLSPGERATLSCRASQSVSSYLAWYQQKPGQAPRLLIYDASNRATGIPARFSGSGSGTDFTLTISSLEPEDFAVYYCQQRSNWPFTFGPGTKVDIK
notes: also called TH1016-045; PC1016-045
B8: IgG1-1016-058 (antibody, V domains shown)
VH: EVQLVESGGGLVKPGGSLKLSCAASGFTFSDYYMYWVRQTPEKRLEWVATISDDGSYTYYPDSVKGRFTISRDNAKNNLYLQMSSLKSEDTAMYYCAREGLYYYGSGSYYNQDYWGQGTLVTVSS
VL: B6 VL with I29L, Q37R, N92T, M96Q, Y97I, K104R
notes: also called IgG1-058; TH1016-058
B9: anti-c-Met HuMab 005 (IgG1) (antibody, V domains shown)
VH: QVQLVQSGAEVKKPGSSVKVSCKASGGTFSSYGFGWVRQAPGQGLEWMGRISPILGIANYAQMFQGRVTITADKSTSTAYMELSSLRSEDTAVYYCARDVGYDWPDTFDIWGQGTMVIVSS
VL: DIQMTQSPSSLSASVGDRVTITCRASQGISSWLAWYQQKPEKAPKSLIYAASSLQSGVPSRFSGGGSGTDFTLTISSLQPEDFATYYCQQYNSFPPTFGQGTKVEIK
notes: also called TH1016-005; PC1016-005
B10: IgG1-1016-022 (antibody, V domains shown)
VH: QVQLVESGGGVVQPGRSLRLSCAASGFTFSSYAMHWVRQAPGKGLEWVAVISYDGSNKYYADSVKGRFTISRDNSKNTLYLQMNSLRAEDTAVYYCARELLWFGELWGYFDLWGRGTLVTVSS
VL: B1 VL with N31S, F36Y, L55Q, Q90E, N92S, P95T, I96W, R103K, L104V
notes: also called TH1016-022; PC1016-022
B11: anti-c-Met HuMab 098 (IgG1) (antibody, V domains shown)
VH: QVQLVQSGAEVKKPGASVKVSCKASGYTFTNFGISWVRQAPGQGLEWMGWISAFNGHTDYSQKVQGRVTMTTDTSTSTAYMELRSLRSDDTAVFYCARSHYYGSGSPFDYWGQGTLVTVSS
VL: B9 VL with S31N, G65S, Q89H, N92K, F94Y, P96W
notes: also called TH1016-098; PC1016-098
B12: anti-c-Met HuMab 006 (IgG1) (antibody, V domains shown)
VH: B9 VH with Y32F, F34I, S52F, I57T, S84T, W104S, P105A, T107A, I118T
VL: B9 VL with G65S, F94Y
notes: also called TH1016-006; PC1016-006

target: T1, cMetECDHis (human, UniProt P08581 25-932, limits assumed, biotinylated in the cross-block ELISA of Example 17); assay: cross-block ELISA; competitor 101
T1 construct: Expressed in HEK-293F cells; also called soluble cMetECDHis; biotinylated cMetECDHis
Experimental: First, the optimal coating concentrations of the tested anti-c-Met antibodies and the optimal cMetECDHis concentration were determined. Therefore, ELISA wells were coated overnight at 4° C. with anti-c-Met HuMabs serially diluted in PBS (8 μg/mL in 2-fold dilutions). Next, the ELISA wells were washed with PBST (PBS supplemented with 0.05% Tween-20 [Sigma-Aldrich, Zwijndrecht, The Netherlands]) and blocked for one hour at room temperature (RT) with PBSTC (PBST supplemented 2% [v/v] chicken serum [Gibco, Paisley, Scotland]). Subsequently, the ELISA wells were washed with PBST and incubated for one hour at RT with biotinylated cMetECDHis serially diluted in PBSTC (1 μg/mL in 2-fold dilutions). Unbound biotinylated cMetECDHis was washed away with PBST, and bound biotinylated cMetECDHis was incubated for one hour at RT with 0.1 μg/mL Streptavidin-poly-HRP (Sanquin, Amsterdam, The Netherlands) diluted in PBST.
ELISA wells were coated with anti-c-Met antibody at a sub-optimal dose as described above. After blocking of the ELISA wells, they were incubated with the predetermined concentration of biotinylated cMetECDHis in the presence of an excess of anti-c-Met antibody. The reaction was developed as described above. Residual binding was expressed as a percentage relative to the binding observed in the absence of competitor antibody.

| residual binding, % of no competitor [%] | Binder |
| --- | --- |
| 3.9 | B1 |
| 2.4 | B2 |
| 3.7 | B3 |
| 4.8 | B4 |
| 101 | B5 |
| 113 | B6 |
| 102 | B7 |
| 104 | B8 |
| 103 | B9 |
| 104 | B10 |
| 4 | B11 |
| 106 | B12 |

target: T2, recombinant human c-Met extracellular domain (R&D systems) (human, UniProt P08581 25-932); assay: competition ELISA on coated recombinant c-Met extracellular domain; blocked ligand Europium-conjugated HGF; column headed EC50 on the sheet, called IC50 in paragraph 270; lower panel
T2 construct: extracellular domain; Bought reagent; also called coated extracellular domain of c-Met; recombinant c-Met
Experimental: (§1) ELISA wells were coated overnight at 4° C. with 0.5 μg/mL recombinant human c-Met extracellular domain (R&D systems, Minneapolis, USA) diluted in PBS. Next, the ELISA wells were washed with PBST (PBS supplemented with 0.05% Tween-20 [Sigma-Aldrich, Zwijndrecht, The Netherlands]) and blocked for one hour at room temperature (RT) with PBST supplemented with 2% (v/v) chicken serum (Gibco, Paisley, Scotland). […] Mean fluorescence intensity at 615 nm was measured using the EnVision 2101 Multilabel reader (PerkinElmer) applying the following settings: Lance/Delfia dual mirror, emission filter 615, excitation filter 340 nm, delay time 400 μs, window 400 μs, 100 flashes, 2000 μs per cycle and bidirectional row-by-row reading. To determine IC₅₀ values, the binding curves were analyzed with non-linear regression (sigmoidal dose-response with variable slope, top-values constrained to a shared value for all data-sets) using GraphPad Prism V4.03 software (GraphPad Software, San Diego, Calif., USA).
(§2) FIG. 5 depicts representative examples of HGF binding inhibition curves of anti-c-Met antibodies for binding to the extracellular domain of recombinant human c-Met. 5D5 was used as positive control antibody. All anti-c-Met antibodies in the experiment shown were able to compete with Europium^{3±}-conjugated HGF for binding to recombinant c-Met. […] Without adding Europium³⁺-conjugated HGF, roughly ˜600 relative fluorescent units (RFU) were detected, indicating the signal when maximal inhibition is accomplished. When binding of Europium³⁺-conjugated HGF was not inhibited, approximately ˜66,000 RFU were detected.

| IC50 [µg/mL] | Binder |
| --- | --- |
| 0.0267 | B1 |
| 0.0103 | B2 |
| 0.0558 | B3 |
| 0.0135 | B11 |

target: T3, cMetSEMA-567His8 (human, UniProt P08581 25-567, limits assumed); assay: TR-FRET; displacement of AlexaFluor-647-HGF from cMetSEMA-567His8
T3 construct: In the TR-FRET assay detected by anti-6xhis Europium3+; also called cMetSEMAHis; SEMA domain of c-Met; not shown: C-terminal His tag; the text says His9, the construct name says His8
Experimental: Therefore, the interaction of anti-c-Met antibodies with the SEMA domain of the c-Met receptor was studied using TR-FRET technology. […] The mean fluorescent intensity at 665 nm was measured on the EnVision 2101 Multilabel reader (PerkinElmer).
A 4-fold serial dilution of unlabeled anti-c-Met antibody ranging from 0.49-8000 ng/mL was tested. After overnight incubation at 4° C. in the dark, mean fluorescence intensity at 665 nm was measured using the EnVision 2101 Multilabel reader applying the following settings: Lance/Delfia dual mirror, emission filter 615-665 nm, excitation filter 320 nm, delay time 60 μs, window 100 μs, 100 flashes, 2000 μs per cycle and bidirectional row-by-row reading. To determine IC₅₀ values, the binding curves were analyzed with non-linear regression (sigmoidal dose-response with variable slope) using GraphPad Prism V4.03 software (GraphPad Software, San Diego, Calif., USA).

| % inhibition [%] | IC50 [µg/mL] | Binder |
| --- | --- | --- |
| 97 | 0.54 | B1 |
| 93 | 0.34 | B2 |
| 96 | 0.53 | B3 |
| 95 | 0.39 | B4 |
| 92 | 0.17 | B7 |
| 99 | 0.15 | B8 |
| 92 | 0.16 | B9 |
| 77 | 0.37 | B10 |
| 98 | 0.55 | B11 |
| 92 | 0.16 | B12 |

target: T2, recombinant human c-Met extracellular …; assay: competition ELISA, residual Europium-HGF signal at 615 nm at the lower plateau of the fit; sheet prints no competing mAb ~66000, no HGF-Europium ~600; upper panel
Experimental: as §1, §2

| Bottom [RFU] | Binder |
| --- | --- |
| 13100 | B4 |
| 30100 | B5 |
| 23300 | B6 |
| 12600 | B7 |
| 5200 | B8 |
| 6940 | B9 |
| 18200 | B10 |
| 5630 | B12 |

target: T2, recombinant human c-Met extracellular …; assay: competition ELISA on coated recombinant c-Met extracellular domain; blocked ligand Europium-conjugated HGF; column headed EC50 on the sheet, called IC50 in paragraph 270; upper panel
Experimental: as §1, §2

| IC50 [µg/mL] | Binder |
| --- | --- |
| 0.0168 | B4 |
| 0.00788 | B5 |
| 0.0348 | B6 |
| 0.0165 | B7 |
| 0.00727 | B8 |
| 0.0362 | B9 |
| 0.00927 | B10 |
| 0.0799 | B12 |
